# Assay results published in publication PMC7949057, “The cytoprotective protein MANF promotes neuronal survival independently from its role as a GRP78 cofactor” (The Journal of Biological Chemistry, 2021).
# B1: Recombinant human MANF protein (natural protein, UniProt P55145 25-182, looked up)
# chain: LRPGDCEVCISYLGRFYQDLKDRDVTFSPATIENELIKFCREARGKENRLCYYIGATDDAATKIINEVSKPLAHHIPVEKICEKLKKKDSQICELKYDKQIDLSTVDLKKLRVKELKKILDDWGETCKGCAEKSDYIRKINELMPKYAPKAASARTDL
# notes: MANF, human, mature protein secreted from CHO-derived cells; also called wild-type MANF; FL-MANF; source: CHO-derived cell line (QMCF technology), purified from culture media (Q FF, SP HP, SEC)
# B2: Nucleotide-binding domain (NBD) of GRP78 (domain or fragment)
# chain: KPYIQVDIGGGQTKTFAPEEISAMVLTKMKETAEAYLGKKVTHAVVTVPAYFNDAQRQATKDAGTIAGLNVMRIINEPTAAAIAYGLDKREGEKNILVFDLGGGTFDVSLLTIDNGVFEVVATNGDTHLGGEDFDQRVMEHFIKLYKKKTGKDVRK
# modifications: RED-tris-NTA dye held on the His-tag
# B3: CH1-derived substrate peptide (HTFPAVL) (peptide)
# peptide: HTFPAVL
# notes: peptide derived from the CH1 domain of an IgG heavy chain; also called IgG heavy chain-derived peptide; source: synthetic peptide (custom synthesis by Pepscan)
# Assays:
# Conditions in all cases: both partners purified
# [1] = biological target: T1, Recombinant hamster GRP78 protein (hamster, UniProt G3I8R9 19-654, RED-tris-NTA dye held on the His-tag); assay: MST; as a4, in the presence of ADP
# T1 construct: GRP78 (BiP), hamster; also called BiP; full-length GRP78; not shown: His-tag, N-terminal, kept
# [2] = biological target: T1, Recombinant hamster GRP78 protein; assay: MST; as a4, in the presence of AMP
# [3] = biological target: T1, Recombinant hamster GRP78 protein; assay: MST; GRP78 or its variants labelled through the N-terminal His-tag, constant 20 nM; ligand titrated in 2-fold dilutions; 25 °C; MST buffer (10 mM Na-phosphate pH 7.4, 1 mM MgCl2, 3 mM KCl, 150 mM NaCl, 0.05% Tween-20); no nucleotide; for MANF with GRP78 also 0, 1, 100 or 200 uM CaCl2; fit with 1:1 stoichiometry
# [4] = biological target: B1; assay: as above
# T1 sequence (G3I8R9 19-654): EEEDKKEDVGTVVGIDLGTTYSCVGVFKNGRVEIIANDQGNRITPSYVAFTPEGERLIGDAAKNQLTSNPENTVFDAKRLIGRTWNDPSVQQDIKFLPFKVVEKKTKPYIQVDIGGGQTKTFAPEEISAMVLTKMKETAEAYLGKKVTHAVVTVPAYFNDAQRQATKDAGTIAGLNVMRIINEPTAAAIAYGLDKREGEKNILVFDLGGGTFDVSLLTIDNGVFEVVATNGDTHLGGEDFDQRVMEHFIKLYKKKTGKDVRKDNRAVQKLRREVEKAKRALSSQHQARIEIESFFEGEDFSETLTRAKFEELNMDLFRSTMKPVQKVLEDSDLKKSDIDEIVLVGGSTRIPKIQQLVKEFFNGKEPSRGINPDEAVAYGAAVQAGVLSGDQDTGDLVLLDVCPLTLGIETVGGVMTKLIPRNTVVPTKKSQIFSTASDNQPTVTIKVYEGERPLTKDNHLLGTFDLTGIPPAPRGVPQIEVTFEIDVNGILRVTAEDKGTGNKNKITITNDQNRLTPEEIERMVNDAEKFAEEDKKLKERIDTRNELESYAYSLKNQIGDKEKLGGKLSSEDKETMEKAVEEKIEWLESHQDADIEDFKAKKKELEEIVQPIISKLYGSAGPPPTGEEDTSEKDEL
Binder,Kd [1],Kd [2],Kd [3],Kd [4]
B1,5690 nM,260 nM,380 nM,–
B2,–,–,–,280 nM
B3,120 nM,–,220 nM,–
